From patent US8114412B2, “T. cruzi-derived neurotrophic agents and methods of use therefor” (priority 1999, dated 2012)
“Also recorded” adds a separate entry of the source.

Legend:
[1] = system: peripheral blood mononuclear cells (PBMC); experiment: IL-6 secretion by PBMC (ELISA); type: cell-based, human; set-up: IL-6 secretion by PBMC: dose or concentration left out as unconfirmed
Protocol: (§1) Primary cultures of human intestinal microvascular endothelial cells (HIMEC) isolated from normal jejunal mucosa/submucosal tissue were prepared as described (Strong et al., Gastroenterology 114: 1244-1256 (1998)). The HIMEC were cultured in fibronectin-coated plasticware in MCDB medium (Sigma) supplemented with 20% FBS, 90 μg/ml heparin and 50 μg/ml endothelial cell growth factor (Sigma). T-24 cells (ATCC Accession No. HTB-4) were cultured in M199 medium supplemented with 10% FBS. PBMC were purified by Ficoll-Paque gradient as described (Current Protocols in Immunology, pp 7.1.1-7.1.2). Vero cells (ATCC Accession No. CCL-81) were grown in RPMI medium with 5% Nu serum and infected with the Silvio X-10/4 of T. cruzi as described previously (Chuenkova et al., J. Exp. Med. 181: 1693-1703, (1995)).
(§2) Endothelial cells and T-24 cells were plated on 24-well plates at a density of 1×10^3 cells/well, while peripheral blood mononuclear cells (PBMC) were plated in the similar wells at 1×10^6/well. Triplicat cultures of cells were incubated test agents for a predetermined amount of time. […] Cytokines and chemokines released in the culture supernatants were measured by ELISA assay following the instructions of the manufacturer (Endogen). The cytokines tested were IL-1β, IL-4, IL-8, IL-10, IL-12, IFN-γ, TNF-α, and the chemokines RANTES and MCP-1. Negative controls were cells incubated in medium containing polymixin B at 10 μg/ml, and positive controls were cells incubated with bacterial LPS at the low ng/ml range (for PBMC or HIMEC) or in the μg/ml range for carcinoma T-24 cells. In some experiments, IL-1β, or TNFα were used as positive control for cytokine release.
TR peptides (Table 2) were synthesized at the Tufts Synthesis Facility (Boston, Mass.). Each peptide was purified by HPLC, and the number of amino acids and molecular weight of each peptide verified by mass spectrometry. Peptides were dissolved in growth medium (10% FCS in RPMI) and added at various concentrations to 1×10^6 PBMC/well in 24-well plates. After 24 hrs, IL-6 was assayed by ELISA in the conditioned supernatants.

[2] = system: mouse splenocytes, bone marrow cells, and peritoneal cells; experiment: IL-6 secretion by naive mouse cells; type: cell-based; conditions: peritoneal cells from BALB/c and other strains of mice
[3] = system: human intestinal microvascular endothelial cells (HIMEC); experiment: IL-6 secretion by HIMEC (ELISA); type: cell-based
Protocol: as §1, §2

PC12 cells = experiment: Neurite outgrowth assay in PC12 cells; type: cell-based, rat
Source text: PC12 cells were obtained from ATCC (Manassas, Va. (Accession No. CRL-1721)) and cultured on collagen-coated dishes in RPMI 1640 supplemented with 10% horse serum and 5% fetal bovine serum (Greene, L. A. and Tishler, A. S., Proc. Natl. Acad. Sci. USA, 73: 2424-2428 (1976)). For differentiation and survival experiments, cells were washed three times in serum-free RPMI/0.2% BSA, plated in the same medium in collagen-coated plastic dishes at 2×10^5/ml, without and with growth factors, TS, recombinant proteins, synthetic peptides, for the time and concentrations indicated in the Figures.
96-well microtiter plates were coated overnight at 4° C. with the TS or peptides or fragments thereof, or with control proteins laminin (Ln) or bovine serum albumin (BSA) at 500 μg/ml. After removing the compounds, the plates were further incubated with 1% BSA for 1 hour at room temperature and immediately used as substratum for PC12 or N18 (Prasad, K. N., Biol Rev Camb Philos Soc, 66:431-451 (1991)) cells in serum-free RPMI/0.2% BSA. Neurite outgrowth was measured using a phase-contrast microscope 17 hours later.

[4] = system: primary rat cerebellar granule neurons; experiment: Survival of primary cerebellar granule neurons in low K+ medium; type: cell-based; conditions: serum-free BME 5 mM KCl, TS 100 ng/ml, 24 hours, FDA staining
Protocol: Cultures enriched in granule neurons were obtained from the cerebellum of 8-days-old Wistar rats (Charles River, Wilmington, Mass.) as described by D'Mello et al., J. Neurosci 17:1548-1560 (1997). Cells were plated in basal Eagle medium (BME, Gibco BRL, Gaithersburg, Md.), supplemented with 10% FCS, 25 mM KCl and 2 mM glutamine (Gibso BRL) on dishes coated with poly-L-lysine and laminin. Cytosine arabinofumoside (10 μM) was added to the culture medium 18-22 hrs after plating to prevent replication of non-neuronal cells. Replacement of culture medium with serum-free BME medium was performed 7-10 days after plating. Cells were maintained in serum-free BME with 5 mM KCl for 3 hrs and challenged with different stimuli. Neuronal survival was assayed after 24 hours by staining with 10 μg/ml fluorescein diacetate (FDA, Sigma) (Jones and Senft, 1985) and with DAPI (see above). Chicken dorsal root ganglia neurons were prepared as described (Cox and Dunlap, J. Gen. Physiol 104:311-336 (1994)).

Trans-sialidase assay = type: biochemical
Protocol: The trans-sialidase assay was performed as described (Scudder et al., J. Biol. Chem. 268:9886-9891 (1993)) with slight modifications. Various amounts of intact enzyme or enzyme fragments were added to 50 mM PBS, Ph 7.2, containing 15% fetal calf serum and […] of [^14C]N-acetyllactosamine (4×10^5 dpm), 50 μg BSA and 0.02% NaN3 in a volume of 60 μl. After incubation for a predetermined amount of time at room temperature, the reaction mixture was diluted to 1.0 ml with distilled water and applied to a column containing 1.0 ml Q-Sepharose equilibrated with water. Sialylated product was eluted with 1 M NaCi and quantified by scintillation counting.
TS enzymatic activity was measured by the sialylation of the acceptor ^14C-labeled N-acetyllactosamine on anion exchange resins (Scudder, P. et. al., J. Biol. Chem. 268:9886-9891 (1993)). Recombinant TSA-1, was expressed on insect sf9 cells and purified from serum-free medium by ion exchange chromatography (monoQ) and preparative SDS-PAGE (Wrightsman, R. A. et al., J. Immunol., 153:3148-3154 (1994).

| Molecule | IL-6 secretion by PBMC ([1]; 24 hrs culture) | stimulation time for maximum IL-6 secretion in PBMC ([1]; TS 1 μg/ml) | IL-6 secretion by naive mouse cells [2] | IL-6 secretion by HIMEC ([3]; 24 hrs culture) | bacterial LPS concentration inducing the same quantity of IL-6 in HIMEC ([3]; TS 1 μg/ml) | stimulation time for maximum IL-6 secretion in HIMEC ([3]; TS 1 μg/ml) | concentration range at which TS was active in neurite extension (PC12 cells) | time PC12 neurites remained extended (PC12 cells; after a single dose of TS) | time until PC12 neurites became visible (PC12 cells; after a single dose of TS) | neurite outgrowth in PC12 cells (PC12 cells; neurite outgrowth assay, concentration not given) | neurite outgrowth in PC12 cells (PC12 cells; soluble in serum-free RPMI-1640/0.2% BSA, collagen coated dishes, 16 hours, NGF 0.1 μg/ml, VCNA 2.4 μg/ml, TS 1 μg/ml) | protection of primary cerebellar granule neurons from death in low K+ medium [4] | trans-sialidase enzymatic activity (Trans-sialidase assay) |
| --- | --- | --- | --- | --- | --- | --- | --- | --- | --- | --- | --- | --- | --- |
| TS: T. cruzi trans-sialidase purified by immuno-affinity chromatography from supernatants of infected Vero cells (SEQ ID NO:2, SEQ ID NO:34) (protein, listed as Trypanosoma cruzi) MVAIADARYETSSENSLIDTVAKYSVDDGETWETQIAIKNSRVSSVSRVVDPTVIVKGNKLYVLVGSYYSSRSYWSSHGDARDWDILLAVGEVTKSTAGGKITASIKWGSPVSLKKFFPAEMEGMHTNQFLGGAGVAIVASNGNLVYPVQVTNKRKQVFSKIFYSEDDGKTWKFGKGRSDFGCSEPVALEWEGKLIINTRVDWKRRLVYESSDMEKPWVEAVGTVSRVWGPSPKSNQPGSQTSFTAVTIEGMRVMLFTHPLNFKGRCVRDRLNLWLTDNQRIYNVGQVSIGDENSAYSSVLYKDDKLYCLHEINTDEVYSLVFARLVGELRIIKSVLRSWKNWTATCPAFAPLLIQPLRRQRVVVVPLSPRLVLLAFCRQRLPKRMGGSYRCVNASTANAERVRNGLKFAGVGGGALWPVSQQGQNQRYRFANHAFTLVASVTIHEAPRAASPLLGASLDSSGGKKLLGLSYDEKHQWQPIYGSTPVTPTGSWETGKRYHLVLTMANKIGSVYIDGELLEGSGQTVVPDGRTPDISHFYVGGYKRSDMPTISHVTVNNVLLYNRRQLNTEEIRTLFLSQDLIGTEAHMDSSSDSSAHSTPSTPADSSAHSTPSTPVDSSAHSTPSTPADSSAHGTPSTPVDSSAHGTPSTPADSSAHGTPSTPVDSSAHSTPSTPVDSSAHSTPSTPVDSSAHGAPSTPADSSAHGTPSTPVDSSAHGTPSTPADSSAHSTPSTPADSSAHSTPSTPADSSAHSTPSTPVDSSAHGTPSTPADSSAHSTPSTPADSSAHGTPSTPVDSSAHSTPSTPVDSSAHGTPSTPVDSSAHSTPSTPVDSSAHGTPSTPVDSSAHSTPSTPADSSAHSTPSTPADSSAHGTPSTPVDSSAHSTPSTPADSSAHSTPSTPVDSSAHSTPSTPADSSAHGTPSTPVDSSAHGTPSTPADSSAHSTPSTPADSSAHSTPSTPADSSAHSTPSTPVDSSAHSTPSTPADSSAHSTPSTPADSSAHSTPSTPADSSAHSTPSTPVDSSAHSTPSTPADSSAHGTPSTPADSSAHSTPSTPVDSSAHSTPSTPADSSAHGTPSTPADSSAHSTPSTPADSSAHGTPSTPADSSAHSTPSTPAGSSANGTVLILPDGAALSTFSGGGLLLCACALLLHVFFMAVF | potently and specifically induced IL-6 secretion; also recorded: stimulated IL-6 release | 24 h | potently and specifically induced IL-6 secretion; also recorded: upregulator of IL-6 secretion | potently and specifically induced IL-6 secretion; also recorded: elevated in the conditioned supernatants in a manner dependent on the TS input | 50 ng/mL | 24 h | 0.125 nM | about 24 hours | 3 h | induced neurite outgrowth | induces neurite outgrowth | effectively protected the neurons from death; also recorded: increased number of viable cells | – |
| TS-F: recombinant full catalytic domain of TS, amino acid residues 33-666, His-tagged, expressed in E. coli (protein, listed as Trypanosoma cruzi, His tag, recombinant full catalytic domain of TS, amino acid residues 33-666, His-tagged, expressed in E. coli) ETQIAIKNSRVSSVSRVVDPTVIVKGNKLYVLVGSYYSSRSYWSSHGDARDWDILLAVGEVTKSTAGGKITASIKWGSPVSLKKFFPAEMEGMHTNQFLGGAGVAIVASNGNLVYPVQVTNKRKQVFSKIFYSEDDGKTWKFGKGRSDFGCSEPVALEWEGKLIINTRVDWKRRLVYESSDMEKPWVEAVGTVSRVWGPSPKSNQPGSQTSFTAVTIEGMRVMLFTHPLNFKGRCVRDRLNLWLTDNQRIYNVGQVSIGDENSAYSSVLYKDDKLYCLHEINTDEVYSLVFARLVGELRIIKSVLRSWKNWTATCPAFAPLLIQPLRRQRVVVVPLSPRLVLLAFCRQRLPKRMGGSYRCVNASTANAERVRNGLKFAGVGGGALWPVSQQGQNQRYRFANHAFTLVASVTIHEAPRAASPLLGASLDSSGGKKLLGLSYDEKHQWQPIYGSTPVTPTGSWETGKRYHLVLTMANKIGSVYIDGELLEGSGQTVVPDGRTPDISHFYVGGYKRSDMPTISHVTVNNVLLYNRRQLNTEEIRTLFLSQDLIGTEAHMDSSSDSSAHSTPSTPADSSAHSTPSTPVDSSAHSTPSTPADSSAHGTPSTPVDSSAHGTPSTPADSSAHGTPSTPVDS | – | – | – | – | – | – | – | – | – | – | – | – | enzymatically active |
